From the supplement of paper PMC9170038

System: K4 kissing-loop RNA reporter
Test: apparent KD of K4 kissing-loop reporter; higher = weaker reporter binding
Settings: Eterna round: R107
Procedure: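 RNA-MaP round R107: designed RNA switches with theophylline, tryptophan, arginine or FMN aptamers are transcribed on-chip within common flanks. They are titrated with a labelled K4 kissing-loop RNA reporter in RNA-MaP buffer (100 mM Tris pH 7.5, 80 mM KCl, 4 mM MgCl2), without ligand or with the indicated ligand. Median apparent KD per design.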

[1] = input ligand: theophylline 20 uM
[2] = input ligand: tryptophan 2.4 mM
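Further: bound reporter read as fluorescence of individual clusters on recovered sequencing chips by microscopy, with normalized cluster intensities fitted with a binding model.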

Sequence	apparent KD of K4 kissing-loop reporter (input ligand: FMN 200 uM) [nM]	apparent KD of K4 kissing-loop reporter (input ligand: arginine 13.2 mM) [nM]	apparent KD of K4 kissing-loop reporter (input ligand: none) [nM]	apparent KD of K4 kissing-loop reporter [1] [nM]	apparent KD of K4 kissing-loop reporter [2] [nM]
CGCAGUGAUGUUGCGAGUUAAUUCAGGGAAGGAGCGCCACAGAUGGCAGGUAGGUCGCCCACGCAGUGAUGUUGCGUAUUCGGGU [Exclusion Arginine A GF 4]	94.3	96.8	95.7	111	80.6
UGAUACCAGACUGAUACCAGCCAGUGAUGUUGGCUGAAAUCAGGGUCAAAGACCCUGUCUGGCCCUUGGCAGCAGUCUGGUAUCU [TheoBX 19 #SwitchBubble #StaticStem]	329	251	291	332	281
UUAUAUAAUUAGUCUUUUUUAACAUUAAGUCAGGAUAUCGUAUAUUCGAGAAGGGACACAUGCUAGUGAUGUUAGCUAUUUCUUU [JR_ExcFMNA_Sub017]	32.4	54.7	30.7	50.1	31.5
UGUGUUUACCUGACUCAGUGAUGUUGAGAAGGAGCGUGCGAAAGCACAGGUAGGUCGCUCAACCUAAAUUCAGGUGAGCACUAAA [#SwitchBubble 10 #K4Early]	268	234	341	334	277
CAGGUCACAGAGUGAUGUUCUGUGUCCGAAGGAGCGAUGGUCGCAUCAGGUAGGUCGCGGAUACAGUUGAAGUCCUAUCUAGACG [#10 K4 Arginine A Exclusion]	143	111	119	123	134
AAGUGUCAUUAGACACACUGAUGUAUAAACUAGGAUAUGCUGAUAAGCAGAAGGAGUGAUGUUCCUUUCAUCAUCAGAAUUAAAU [KL-XFMN-A2]	167	113	110	127	94.5
UGACUGGACUGAAGGAGCGUUGAAGGAGCGUAAGCAGUGAUGUUGCUUACAGGUAGGUCGCAGCAGGUAGGUCGCAGUCUAGUCU [ArgBS 28 #DoubleAptamer #SwitchBubble]	134	102	122	115	122
AAGCAGUCACUCGAAUCCAUCGAAGAUGGGCGAGGACCGGUACGGCCGCCACUCGGAGUGAUGUUCCGAAGACUGCAAAAUAAAA	262	264	419	786	378
AAGCAGUCACUCGUAGCCAUCGAAGAUGGUCGAGGACCGGUACGGCCGCCACUCGGAGUGAUGUUCCGAAGACUGCAAAAUAAAA	272	313	337	378	364
GCCAGAGCGCGAAGGAGCGCCGUGACAGGUUGCUGCCGUGGGCAGUGAUGUUGCUCAGUCUGGCAGGUAGGUCGCGUGCUCUGGC	196	173	205	228	219
AAGGGCGGGACUUUCUCGCCGGAUAGAGAUACCAGCCCAGCAAAGGGCCCUUGGCAGCUCACUGACCUCAGUGAUGUUGAGGUUC [Soerrainat]	295	240	242	199	266
UGCAUGCUAGUAGUGAUGUUACAUGAUGAUACCAGUGCUUUUUUGCACCCUUGGCAGCGUCAUUUUGCAUGCACGUCGAAAGACG	511	473	565	344	474
AAGGUAUCUAGAUACAUUACUGAACUAGAUACCAGCAUCGAAAGAUGCCCUUGGCAGCUAGCAGUGAUGUUGCUAGCAAUAAGAA [Design3]	121	109	113	112	119
AGAUGUCCCUGGGAUACCAGUCGGAGUCUCAGGGCUCGGAGUGAUGUUCUGGGAUGUUUCGGCCCUUGGCAGCCCUGGGACUCCC [#2 Exclusion - Theophylline B Attempt #26 (HarryS)]	573	266	908	671	398
UGGAGUUGACGAAAAGUCAACUCCUGAGAUACCAGUGACGAAGGUCACCCUUGGCAGCUCACUGCUAGUGAUGUUGGUAGUUAAA [whbob_SS_Theo_A_w50]	1050	502	797	773	829
AUCGUUGUCUGAGGAUAUCGGUUAACUGUAGUGAUGUUACAGAAAAUUCAUAUUAUAUUUUCUAUUCGAGAAGGCAGACUACGUA [JR_Nu3_ExcFMNB_Sub019]	203	141	160	145	157
UAUUAAUUGUCAGGAUAUCGAAAUCGAGUGAUGUUCGUAAAUUAAUUAUUAUUAAUAAUAUUUAUACGAGAAGGGACAUUAUUUA [JR_SSFMNB_Sub002]	236	671	758	780	532
CCUUCCACAGAAGGAUAUCGGAGUGAUGUUCCCAAGCAGACCUCAAAGUGGGUAGCCAGUCAGUUCCGAGAAGGUCUGCAGCGAG [theeternabot_exclusion_KL_FMN_B_26]	250	280	271	370	189
UGCACGGGCUCGGCCGCCACUCCAGCGGGUCGAAAGGUCCGCUACUGAGUGAUGUUCGGUUGGAGGAGGACCGGGAGCCCGUGCA [#2 Exclusion - Tryptophan B Attempt #28 (HarryS)]	98.9	97.9	122	115	140
GGUCGAGUGAUGUUCGAUGUAAUGCAUUCAGAGGAUAUAGGAUUGGCUAGAAGGCUGAAUCGUUCUUCGAGUGAUGUUCGAGGAU [Same State FMN A GF 7]	286	141	213	244	183
UUAUCUAUAUUCGAUACCAGUACCCUUUGUGUUGAUCCUUUUAUCAGUGAUGUUGAUGUGUACCCUUGGCAGCGGGUAUGGGUUU [KL-XTheo-B16]	384	370	425	556	279
